Data published in patent US20250041435A1 (AstraZeneca / MedImmune, published 2025).

T1: human STEAP2 (six-transmembrane epithelial antigen of prostate 2) (human, UniProt Q8NFT2 1-490)
T1 sequence: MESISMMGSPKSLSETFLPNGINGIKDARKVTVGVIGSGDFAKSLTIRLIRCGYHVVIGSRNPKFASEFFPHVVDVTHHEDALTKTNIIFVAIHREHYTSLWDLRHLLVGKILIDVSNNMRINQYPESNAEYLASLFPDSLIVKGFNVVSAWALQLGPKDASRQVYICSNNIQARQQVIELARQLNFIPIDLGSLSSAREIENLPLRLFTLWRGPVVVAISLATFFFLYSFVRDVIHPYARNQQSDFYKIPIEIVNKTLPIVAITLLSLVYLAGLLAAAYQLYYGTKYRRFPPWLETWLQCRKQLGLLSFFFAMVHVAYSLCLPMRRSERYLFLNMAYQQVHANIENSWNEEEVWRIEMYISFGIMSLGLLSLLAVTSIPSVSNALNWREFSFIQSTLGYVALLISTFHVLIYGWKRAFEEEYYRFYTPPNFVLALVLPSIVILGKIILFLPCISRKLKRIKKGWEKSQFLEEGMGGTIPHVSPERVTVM


Assays:
[1] = target: T1, human STEAP2 (six-transmembrane …); assay: cell-based or functional assay
[2] = target: T1, human STEAP2 (six-transmembrane …); assay: cell-based or functional assay; remark: listed apart in the source
[3] = target: T1, human STEAP2 (six-transmembrane …); assay: flow cytometry on LNCaP cells (endogenous human STEAP2)
[4] = target: T2, murine chimeric STEAP3-2 protein on AD293 cells (murine); assay: flow cytometry on AD293 muSTEAP3-2 cells, fluorescent anti-human secondary antibody
T2 construct: Used to test cross-reactivity to mouse STEAP2; also called AD293 muSTEAP3-2; AD293 STEAP3-2
Method: (§1) The cell-binding assays were designed to assess the binding affinities for parental 40A3-LO7 and its affinity matured derivatives to both human and murine STEAP2. The binding of the anti-STEAP2 antibodies were detected using a fluorescently labelled anti-human secondary antibody and standard methods of flow cytometry.
(§2) Briefly, a seven point 3-fold serial dilutions of 5× antibodies (mAbs) was prepared in sterile filtered FACS Buffer (5% Heat Inactivated Fetal Bovine Serum in PBS pH 7.4). Ten microliters of the antibody dilutions were added into designated wells in a 96-well U-bottom clear plate. The evaluated cells lines were harvested using cold 0.25% Trypsin-EDTA, resuspended in maintenance media, pelleted, and counted. Cell density was adjusted to 2×10⁶ cells/ml and forty microliters of cells were seeded on top of the antibody dilutions and incubated for 30 minutes. Cells were washed and a solution containing a 1:400 dilution of anti-human secondary antibody and a 1:1000 dilution of DAPI. After another 30 minute incubation, cells were washed, and then transferred to the FACS instrument for analysis.

[5] = target: T1, human STEAP2 (six-transmembrane …); assay: cell-based binding (flow cytometry)
[6] = target: T2, murine chimeric STEAP3-2 protein on …; assay: flow cytometry on AD293 muSTEAP3-2 cells, anti-human secondary
Method: as §1, §2

[7] = target: T1, human STEAP2 (six-transmembrane …); assay: flow cytometry on LNCaP cells (endogenous human STEAP2), anti-human AF647 secondary
Method: as §1, §2

Binder | IC50 of cell viability, LNCaP cells (CellTiter-Glo) [1] [nM] | In Vitro Potency (22Rv1), IC50 of cell viability (CellTiter-Glo) [2] [nM] | In Vitro Potency (C4-2), IC50 of cell viability (CellTiter-Glo) [2] [nM] | In Vitro Potency (LNCaP), IC50 of cell viability (CellTiter-Glo) [2] [nM] | EC50 [3] [nM] | EC50 [6] [nM] | EC50 [7] [nM] | other results
LO14 SG3932 DAR8 ADC (antibody, human IgG1, kappa, V domains shown, SG3932 on native cysteines (DAR 8 per antibody); SG3932 (TOP1i, cleavable mal-PEG8-val-ala linker) on native cysteines through a thiosuccinimide linkage; DAR 8 per antibody) VH: QVQLQQSGPGLVKPSQTLSLTCAISGDSVSRNSAVWNWIRQSPSRGLEWLGRTYYRSKWYNDYAPSVKSRITINPDTSKNQFSLQLNSVTPEDTAVYYCARGLRQNQFYYYMDVWGKGTTVTVSS VL: not shown | 0.3 | 4.53 | 2.23 | 0.22 |  |  |  | 
LO11 SG3932 DAR8 ADC (antibody, human IgG1, kappa, V domains shown, SG3932 on native cysteines (DAR 8 per antibody); SG3932 (TOP1i, cleavable mal-PEG8-val-ala linker) on native cysteines through a thiosuccinimide linkage; DAR 8 per antibody) VH: QVQLQQSGPGLVKPSQTLSLTCAISGDSVSRNSAVWNWIRQSPSRGLEWLGRTYYRSKWYNDYAPSVKSRITINPDTSKNQFSLQLNSVTPEDTAVYYCARGLLQNQFYYYMDVWGKGTTVTVSS VL: not shown | 2.78 | 32.1 | 16.5 | 1.7 |  |  |  | 
40A3-LO7 (antibody, V domains shown, Germlined, de-risked 40A3; Human IgG1 kappa; also called 40A3GL-LO7; STEAP2-3 VH / STEAP2-3 VL) VH: QVQLQQSGPGLVKPSQTLSLTCAISGDSVSRNSAVWNWIRQSPSRGLEWLGRTYYRSKWYNDYAVSVKSRITINPDTSKNQFSLQLNSVTPEDTAVYYCARGLLQNQFYYYMDVWGKGTTVTVSS VL: not shown |  |  |  |  | 43.3 |  |  | EC50 (read off the curve) [4]: ~5 µg/mL
40A3-LO12 (antibody, V domains shown, Human IgG1 kappa) VH: QVQLQQSGPGLVKPSQTLSLTCAISGDSVSRNSAVWNWIRQSPSRGLEWLGRTYYRSKWYNDYAVSVKSRITINPDTSKNQFSLQLNSVTPEDTAVYYCARGLRQNQFYYYMDVWGKGTTVTVSS VL: not shown |  |  |  |  | 1.72 |  |  | 
40A3-LO14 (antibody, human IgG1, kappa, V domains shown, also called 40A3GL-LO14; LO14 mAb) VH: QVQLQQSGPGLVKPSQTLSLTCAISGDSVSRNSAVWNWIRQSPSRGLEWLGRTYYRSKWYNDYAPSVKSRITINPDTSKNQFSLQLNSVTPEDTAVYYCARGLRQNQFYYYMDVWGKGTTVTVSS VL: not shown |  |  |  |  |  | 0.97 | 1.67 | fold improvement in binding relative to 40A3-LO7 [5]: 26 fold
40A3-LO11 (antibody, human IgG1, kappa, V domains shown, also called 40A3GL-LO11; LO11 mAb) VH: QVQLQQSGPGLVKPSQTLSLTCAISGDSVSRNSAVWNWIRQSPSRGLEWLGRTYYRSKWYNDYAPSVKSRITINPDTSKNQFSLQLNSVTPEDTAVYYCARGLLQNQFYYYMDVWGKGTTVTVSS VL: not shown |  |  |  |  |  | 5.78 | 2.38 | 
